Laboratory results from patent US20220204601A1 (ADEL, published 2022).
Ends that are not written are not given here.

T1: K280-ac protein fragment (human)
T1 construct: also called mAC
T1 peptide: VQIINK(Ac)KLDLSN

B1: ADEL-Y01h01_v01 antibody (antibody, V domains shown)
VH: EVQLQESGPGLVKPSQTLSLTCTVSGDSITSGYWNWIRQPPGKGLEYIGYIRYSGRTYYNPSLKSRVTISRDTSKNQFSLKLSSVTAADTAVYYCASVYFTYWGQGTLVTVSS
VL: DVVMTQSPLSLPVTLGQPASISCKSSQSLLDSDGKTYLNWFQQRPGQSPKRLISLVSKLDSGVPDRFSGSGSGTDFTLKISRVEAEDVGVYYCWQGSHFPYTFGQGTKLEIK
notes: Humanized ADEL-Y01m; It was detected with anti-human IgG; also called ADEL-Y01h v01
B2: ADEL-Y01h v04 antibody (antibody, V domains shown)
VH: EVQLQQSGPGLVKPSQTLSLTCAVSGDSITSGYWNWIRQSPSRGLEWLGYIRYSGRTYYNPSLKSRITINRDTSKNQFSLQLNSVTPEDTAVYYCASVYFTYWGQGTLVTVSS
VL: B1 VL
notes: Humanized antibody; It was detected with anti-human IgG; also called Y01h01v04
B3: ADEL-Y01h v07 antibody (antibody, V domains shown)
VH: EVTLKESGPTLVKPTQTLTLTCTVSGDSITSGYWNWIRQPPGKALEYLAYIRYSGRTYYNPSLKSRLTITRDTSKNQVVLTMTNMDPVDTATYYCASVYFTYWGQGTLVTVSS
VL: B1 VL
notes: Humanized antibody; It was detected with anti-human IgG; also called Y01h01v07
B4: ADEL-Y01h v02 antibody (antibody, V domains shown)
VH: B1 VH
VL: DVVMTQSPDSLAVSLGERATINCKSSQSLLDSDGKTYLNWYQQKPGQSPKRLISLVSKLDSGVPDRFSGSGSGTDFTLTISSLQAEDVAVYYCWQGSHFPYTFGQGTKLEIK
notes: Humanized antibody; It was detected with anti-human IgG; also called Y01h01v02
B5: v12 (antibody, V domains shown)
VH: EVQLVESGGGLVQPGRSLRLSCTVSGDSITSGYWNWFRQAPGKGLEYVGYIRYSGRTYYNPSLKSRFTISRDTSKNIAYLQMNSLKTEDTAVYYCASVYFTYWGQGTLVTVSS
VL: EVVLTQSPGTLSLSPGERATLSCKSSQSLLDSDGKTYLNWYQQKPGQSPKRLISLVSKLDSGIPDRFSGSGSGTDFTLTISRLEPEDFAVYYCWQGSHFPYTFGQGTKLEIK
notes: also called Y01h01v12; ADEL-Y01h v12 antibody
B6: ADEL-Y01h v09 antibody (antibody, V domains shown)
VH: B3 VH
VL: B5 VL
notes: Humanized antibody; It was detected with anti-human IgG; also called Y01h01v09
B7: ADEL-Y01h v10 antibody (antibody, V domains shown)
VH: B5 VH
VL: B1 VL
notes: Humanized antibody; It was detected with anti-human IgG; also called Y01h01v10
B8: v11 (antibody, V domains shown)
VH: B5 VH
VL: B4 VL
notes: also called Y01h01v11; ADEL-Y01h v11 antibody
B9: ADEL-Y01h v06 antibody (antibody, V domains shown)
VH: B2 VH
VL: B5 VL
notes: Humanized antibody; It was detected with anti-human IgG; also called Y01h01v06
B10: ADEL-Y01h v03 antibody (antibody, V domains shown)
VH: B1 VH
VL: B5 VL
notes: Humanized antibody; It was detected with anti-human IgG; also called Y01h01v03
B11: ADEL-Y01h v05 antibody (antibody, V domains shown)
VH: B2 VH
VL: B4 VL
notes: Humanized antibody; It was detected with anti-human IgG; also called Y01h01v05
B12: ADEL-Y01h v08 antibody (antibody, V domains shown)
VH: B3 VH
VL: B4 VL
notes: Humanized antibody; It was detected with anti-human IgG; also called Y01h01v08

What was measured:
K280-ac protein fragment [1] = molecular target: T1, K280-ac protein fragment; experiment: ELISA on K280-ac coated at 250 ng/well, HRP anti-human IgG
Experimental: (§1) In addition, binding of the K280-ac protein fragment prepared in Preparation Example 1 with the ADEL-Y01h (v01 to v12) antibodies prepared in Preparation Example 2 was measured by ELISA.
(§2) First, plates were treated with the K280-ac protein fragment at 250 ng/well and reaction was allowed to proceed at 4° C. overnight. The next day, washing with a washing buffer was performed three times, and then treatment with a primary antibody was performed with 8 concentrations (2 μg, 1 μg, 0.5 μg, 0.25 μg, 0.12 μg, 0.06 μg, 0.03 μg, 0.01 μg). As a secondary antibody, HRP-labeled anti-human IgG antibody was used.

Tau (Acetylation -) = molecular target: T2, Tau (Acetylation -); experiment: plate assay as drawn: capture Ab 1ug/well, antigen titrated
T2 construct: also called non-Ac tau protein; non-acetylated wild type tau protein

K280-ac protein fragment [2] = molecular target: T1, K280-ac protein fragment; experiment: ELISA, K280-ac coated at 250 ng/well
Experimental: as §1, §2

T2 sequence (tau protein, as listed by the source): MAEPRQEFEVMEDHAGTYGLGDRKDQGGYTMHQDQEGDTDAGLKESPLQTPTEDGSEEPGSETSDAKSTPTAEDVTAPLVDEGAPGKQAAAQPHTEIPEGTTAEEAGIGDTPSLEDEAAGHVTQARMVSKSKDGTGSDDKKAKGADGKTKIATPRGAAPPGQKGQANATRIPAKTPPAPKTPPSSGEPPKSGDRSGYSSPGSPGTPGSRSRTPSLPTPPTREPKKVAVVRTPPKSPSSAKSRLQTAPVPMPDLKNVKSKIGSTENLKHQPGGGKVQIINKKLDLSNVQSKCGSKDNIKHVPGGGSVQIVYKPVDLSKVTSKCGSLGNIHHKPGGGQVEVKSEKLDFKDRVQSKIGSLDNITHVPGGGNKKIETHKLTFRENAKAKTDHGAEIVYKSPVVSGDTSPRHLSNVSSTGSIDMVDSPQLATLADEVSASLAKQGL

Row | Binder | Absorbance at 450nm at 0.01ug/well (K280-ac protein fragment [1]) | Absorbance at 450nm at 0.03ug/well (K280-ac protein fragment [1]) | Absorbance at 450nm at 0.06ug/well (K280-ac protein fragment [1]) | Absorbance at 450nm at 0.12ug/well (K280-ac protein fragment [1]) | Absorbance at 450nm at 0.25ug/well (K280-ac protein fragment [1]) | Absorbance at 450nm at 0.5ug/well (K280-ac protein fragment [1]) | Absorbance at 450nm at 1ug/well (K280-ac protein fragment [1]) | Absorbance at 450nm at 2ug/well (K280-ac protein fragment [1]) | binding result (Tau (Acetylation -)) | binding result (K280-ac protein fragment [2]) | binding result (K280-ac protein fragment [1])
1 | B1 | 0.731 | 0.899 | 1.1 | 1.58 | 1.93 | 2.07 | 2.22 | 2.42 | no binding (tested: 100.00 (unit not printed)) |  | 
2 | B2 | 0.354 | 0.537 | 0.822 | 1.43 | 1.74 | 2.04 | 2.18 | 2.32 |  |  | 
3 | B3 |  |  |  |  |  |  |  |  |  | binds | 
4 | B4 | 0.103 | 0.203 | 0.377 | 0.805 | 1.12 | 1.61 | 1.83 | 2.08 |  |  | 
5 | B5 | 0.145 | 0.398 | 0.484 | 1.05 | 1.19 | 1.29 | 1.58 | 1.41 |  |  | 
6 | B6 | 0.251 | 0.542 | 0.75 | 1.22 | 1.32 | 1.45 | 1.61 | 1.69 |  |  | 
7 | B7 | 0.568 | 0.997 | 1.23 | 1.65 | 1.64 | 1.78 | 1.9 | 1.87 |  |  | 
8 | B8 | 0.0085 | 0.0225 | 0.027 | 0.0345 | 0.036 | 0.0395 | 0.0455 | 0.048 |  |  | no binding (tested: 2 ug/well)
9 | B9 | 0.0585 | 0.114 | 0.265 | 0.657 | 1.09 | 1.51 | 1.76 | 2.05 |  |  | 
10 | B10 | 0.0815 | 0.17 | 0.302 | 0.641 | 1.06 | 1.51 | 1.79 | 2.06 |  |  | 
11 | B11 | 0.131 | 0.224 | 0.431 | 0.908 | 1.3 | 1.7 | 1.85 | 2.06 |  |  | 
12 | B12 | 0.015 | 0.041 | 0.0375 | 0.0745 | 0.0855 | 0.0965 | 0.179 | 0.294 |  |  | 
